Source: patent US20230265151A1, “GIP/GLP1 CO-AGONIST COMPOUNDS” (priority 2020, published 2023)

Columns and labels:
Experiment in all cases: cell-based or functional assay
[1] = molecular target: T1, human GIP receptor (human, UniProt P48546 22-466)
T1 sequence (looked up): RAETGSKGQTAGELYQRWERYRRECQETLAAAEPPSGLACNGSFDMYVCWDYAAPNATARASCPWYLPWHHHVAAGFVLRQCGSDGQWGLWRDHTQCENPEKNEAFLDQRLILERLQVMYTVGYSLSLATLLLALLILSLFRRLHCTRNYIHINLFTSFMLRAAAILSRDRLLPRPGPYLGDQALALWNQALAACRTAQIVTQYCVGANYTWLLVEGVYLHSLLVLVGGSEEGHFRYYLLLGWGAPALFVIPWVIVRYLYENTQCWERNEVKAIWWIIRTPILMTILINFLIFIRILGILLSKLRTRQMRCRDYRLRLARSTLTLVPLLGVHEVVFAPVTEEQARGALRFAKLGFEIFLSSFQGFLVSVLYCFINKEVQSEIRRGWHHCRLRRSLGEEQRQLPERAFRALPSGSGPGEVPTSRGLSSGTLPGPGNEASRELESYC

[2] = molecular target: human glucagon receptor (human, UniProt P47871 26-477)
[3] = molecular target: human GLP-1 receptor (human, UniProt P43220 24-463)

Row | Binder | EC50, cAMP [1] | EC50, cAMP [2] | EC50, cAMP [3] | Emax, cAMP [1] | Emax, cAMP [3]
1 | YXEGTXTSDXSIXLDXKAQXEFIXXLIEGGKSSGAPPPS (Aib2, αMeF(2F)6, 4Pal10, αMeL13, Orn16, Aib20, D-Glu24, αMeY25, K17 and K31: K(AEEA2-(εK)-(γ-Glu)-CO-(CH2)12-CO2H), C-terminal NH2) [Example 34] | 0.0148 nM | > 9950 nM | 1 nM |  | 
2 | YXEGTXTSDXSIXLDXKAQXEFIXXLIEGGKSSGAPPPS (Aib2, αMeF(2F)6, 4Pal10, αMeL13, Orn16, Aib20, D-Glu24, αMeY25, K17 and K31: K((εK)-(εK)-(γ-Glu)-CO-(CH2)12-CO2H), C-terminal NH2) [Example 40] | 0.0116 nM | > 9950 nM | 0.279 nM |  | 
3 | YXEGTXTSDXSIXLDXKAQXEFIXXLIEGGKSSGAPPPS (Aib2, αMeF(2F)6, 4Pal10, αMeL13, Orn16, Aib20, D-Glu24, αMeY25, K17 and K31: K(AEEA-(εK)-(γ-Glu)-CO-(CH2)12-CO2H), C-terminal NH2) [Example 35] | 0.0162 nM | > 9950 nM | 0.612 nM |  | 
4 | YXEGTXTSDXSIXLDXKAQXEFIXXLIEGGKSSGAPPPS (Aib2, αMeF6, 4Pal10, αMeF13, Orn16, Aib20, D-Glu24, αMeY25, K17 and K31: K(AEEA2-(γ-Glu)-CO-(CH2)12-CO2H), C-terminal NH2) [Example 46] | 0.0801 nM | > 9950 nM | 3.29 nM | 89.5% | 
5 | YXEGTXTSDXSIXLDXKAQXEFIXXLIEGGKSSGAPPPS (Aib2, αMeF(2F)6, Ac6c10, αMeL13, Orn16, Aib20, D-Glu24, αMeY25, K17 and K31: K(AEEA2-(γ-Glu)-CO-(CH2)12-CO2H), C-terminal NH2) [Example 54] | 0.0675 nM | > 9950 nM | 0.538 nM | 113% | 
6 | YXEGTXTSDXSIXLDXKAQXEFIXXLIEGGKSSGAPPPS (Aib2, αMeF(2F)6, 1Nal10, αMeL13, Orn16, Aib20, D-Glu24, αMeY25, K17 and K31: K(AEEA2-(γ-Glu)-CO-(CH2)12-CO2H), C-terminal NH2) [Example 56] | 0.0138 nM | > 9950 nM | 0.205 nM | 90.3% | 
7 | YXEGTXTSDXSIXLDXKAQXEFIXXLIEGGKSSGAPPPS (Aib2, αMeF(2F)6, OMeY10, αMeL13, Orn16, Aib20, D-Glu24, αMeY25, K17 and K31: K(AEEA2-(γ-Glu)-CO-(CH2)12-CO2H), C-terminal NH2) [Example 58] | 0.0158 nM | > 9950 nM | 0.194 nM | 89.2% | 
8 | YXEGTXTSDYXIXLDXKAQXEFIXXLIEGGKSSGAPPPS (Aib2, αMeF(2F)6, Aib11, αMeL13, Orn16, Aib20, D-Glu24, αMeY25, K17 and K31: K(AEEA2-(γ-Glu)-CO-(CH2)12-CO2H), C-terminal NH2) [Example 50] | 0.0168 nM | > 9950 nM | 0.273 nM | 94.7% | 
9 | YXEGTXTSDXSIXLDXKAQXEFIXXLIEGGKSSGAPPPS (Aib2, αMeF(2F)6, 4Pal10, αMeL13, Orn16, Aib20, D-Glu24, αMeY25, K17 and K31: K((εK)-AEEA2-(γ-Glu)-CO-(CH2)12-CO2H), C-terminal NH2) [Example 37] | 0.0211 nM | > 9950 nM | 0.909 nM |  | 
10 | YXEGTXTSDXSIXLDXKAQXEFIXXLIEGGKSSGAPPPS (Aib2, αMeF(2F)6, 4Pal10, αMeL13, Orn16, Aib20, D-Glu24, αMeY25, K17 and K31: K((εK)-AEEA-(γ-Glu)-CO-(CH2)12-CO2H), C-terminal NH2) [Example 36] | 0.0185 nM | > 9950 nM | 0.536 nM |  | 
11 | YXEGTXTSDXSIXLDXKAQXEFIXXLIEGGKSSGAPPPS (Aib2, αMeF(2F)6, Nle10, αMeL13, Orn16, Aib20, D-Glu24, αMeY25, K17 and K31: K(AEEA2-(γ-Glu)-CO-(CH2)12-CO2H), C-terminal NH2) [Example 60] | 0.0126 nM | > 9950 nM | 0.19 nM |  | 
12 | YXEGTXTSDXSIXLDXKAQXEFIXXLIEGGKSSGAPPPS (Aib2, αMeF(2F)6, αMeV10, αMeL13, Orn16, Aib20, D-Glu24, αMeY25, K17 and K31: K(AEEA2-(γ-Glu)-CO-(CH2)12-CO2H), C-terminal NH2) [Example 52] | 0.258 nM | > 9950 nM | 0.384 nM |  | 
13 | YXEGTXTSDXSIXLDXKAQXEFIXXLIEGGKSSGAPPPS (Aib2, αMeF6, 4Pal10, αMeL13, Orn16, Aib20, D-Glu24, αMeY25, K17 and K31: K(AEEA2-(γ-Glu)-CO-(CH2)12-CO2H), C-terminal NH2) [Example 44] | 0.0637 nM | > 9950 nM | 4.77 nM |  | 
14 | YXEGTXTSDXSIXLDXKAQXEFIXXLIEGGKSSGAPPPS (Aib2, αMeF(2F)6, 4Pal10, αMeL13, Orn16, Aib20, D-Glu24, αMeY25, K17 and K31: K((γ-Glu)-AEEA2-CO-(CH2)12-CO2H), C-terminal NH2) [Example 41] | 0.0108 nM | > 9950 nM | 0.691 nM |  | 
15 | YXEGTXTSDXSIXLDXKAQXEFIXXLIEGGKSSGAPPPS (Aib2, αMeF(2F)6, 4Pal10, αMeL13, Orn16, Aib20, D-Glu24, αMeY25, K17 and K31: K((εK)-(γ-Glu)-(γ-Glu)-CO-(CH2)12-CO2H), C-terminal NH2) [Example 39] | 0.0238 nM | > 9950 nM | 0.358 nM |  | 
16 | YXEGTXTSDXSIXLDXKAQXEFIXXLIEGGKSSGAPPPS (Aib2, αMeF(2F)6, 4Pal10, αMeL13, Orn16, Aib20, D-Glu24, αMeY25, K17 and K31: K(AEEA2-(γ-Glu)-(4-(4-iodophenyl)butanoyl)), C-terminal NH2) [Example 3] | 0.0133 nM | > 9950 nM | 0.223 nM |  | 
17 | YXEGTXTSDXSIXLDXKAQXEFIXXLIEGGKSSGAPPPS (Aib2, αMeF(2F)6, 2Nal10, αMeL13, Orn16, Aib20, D-Glu24, αMeY25, K17 and K31: K(AEEA2-(γ-Glu)-CO-(CH2)12-CO2H), C-terminal NH2) [Example 57] | 0.0135 nM | > 9950 nM | 0.14 nM |  | 
18 | YXEGTXTSDXSIXLDXKAQXEFIXXLIEGGKSSGAPPPS (Aib2, αMeF(2F)6, 4Pal10, αMeL13, Orn16, Aib20, D-Glu24, αMeY25, K17 and K31: K(AEEA-(γ-Glu)-AEEA-CO-(CH2)12-CO2H), C-terminal NH2) [Example 43] | 0.0123 nM | > 9950 nM | 0.821 nM |  | 
19 | YXEGTXTSDXSIXLDXKAQXEFIXXLIEGGKSSGAPPPS (Aib2, αMeF6, 4Pal10, αMeL13, Orn16, Aib20, D-Glu24, αMeF25, K17 and K31: K(AEEA2-(γ-Glu)-CO-(CH2)12-CO2H), C-terminal NH2) [Example 48] | 0.0182 nM | > 9950 nM | 1 nM |  | 
20 | YXEGTXTSDXSIXLDXKAQXEFIXXLIEGGKSSGAPPPS (Aib2, αMeF(2F)6, hTyr10, αMeL13, Orn16, Aib20, D-Glu24, αMeY25, K17 and K31: K(AEEA2-(γ-Glu)-CO-(CH2)12-CO2H), C-terminal NH2) [Example 59] | 0.024 nM | > 9950 nM | 0.202 nM | 89.2% | 
21 | YXEGTXTSDXSIXLDXKAQXEFIXXLIEGGKSSGAPPPS (Aib2, αMeF(2F)6, Ac5c10, αMeL13, Orn16, Aib20, D-Glu24, αMeY25, K17 and K31: K(AEEA2-(γ-Glu)-CO-(CH2)12-CO2H), C-terminal NH2) [Example 53] | 0.0841 nM | > 9950 nM | 0.18 nM |  | 
22 | YXEGTXTSDXSIXLDXKAQXEFIXXLIEGGKSSGAPPPS (Aib2, αMeF(2F)6, 4Pal10, αMeL13, Orn16, Aib20, D-Glu24, αMeY25, K17 and K31: K((γ-Glu)-AEEA-CO-(CH2)12-CO2H), C-terminal NH2) [Example 42] | 0.0103 nM | > 9950 nM | 0.429 nM |  | 
23 | YXEGTXTSDXSIXLDXKAQXEFIXXLIEGGKSSGAPPPS (Aib2, αMeF(2F)6, 4Pal10, αMeL13, Orn16, Aib20, D-Glu24, αMeY25, K17 and K31: K(AEEA2-(γ-Glu)-(4-(4-tert-butylphenyl)butanoyl)), C-terminal NH2) [Example 4] | 0.00962 nM | > 9950 nM | 0.137 nM |  | 
24 | YXEGTXTSDXSIXLDXKAQXEXIXXLIEGGKSSGAPPPS (Aib2, αMeF(2F)6, 4Pal10, αMeL13, Orn16, Aib20, 2ClPhe22, D-Glu24, αMeY25, K17 and K31: K(AEEA2-(γ-Glu)-CO-(CH2)12-CO2H), C-terminal NH2) [Example 61] | 0.012 nM | > 9950 nM | 1.35 nM |  | 82.9%
25 | YXEGTXTSDXSIXLDXKAQXEFIXXLIEGGKSSGAPPPS (Aib2, αMeF(2F)6, Bip10, αMeL13, Orn16, Aib20, D-Glu24, αMeY25, K17 and K31: K(AEEA2-(γ-Glu)-CO-(CH2)12-CO2H), C-terminal NH2) [Example 55] | 0.0207 nM | > 9950 nM | 0.154 nM |  | 
26 | YXEGTXTSDXSIXLDXKAQXEXIXXLIEGGKSSGAPPPS (Aib2, αMeF6, 4Pal10, αMeL13, Orn16, Aib20, αMeF22, D-Glu24, αMeY25, K17 and K31: K(AEEA2-(γ-Glu)-CO-(CH2)12-CO2H), C-terminal NH2) [Example 47] | 0.0138 nM | > 9950 nM | 1.94 nM |  | 87.1%
27 | YXEGTXTSDXSIXLDXKAQXEFIXXLIEGGKSSGAPPPS (Aib2, αMeF(2F)6, αMeL10, αMeL13, Orn16, Aib20, D-Glu24, αMeY25, K17 and K31: K(AEEA2-(γ-Glu)-CO-(CH2)12-CO2H), C-terminal NH2) [Example 51] | 0.11 nM | > 9950 nM | 0.89 nM |  | 
28 | YXEGTXTSDYXIXLDXKAQXEFIXXLIEGGKSSGAPPPS (Aib2, αMeF(2F)6, αMeS11, αMeL13, Orn16, Aib20, D-Glu24, αMeY25, K17 and K31: K(AEEA2-(γ-Glu)-CO-(CH2)12-CO2H), C-terminal NH2) [Example 49] | 0.0205 nM | > 9950 nM | 0.398 nM | 91% | 97.3%
29 | YXEGTXTSDXSIXLDXKAQXEFIXXLIEGGKSSGAPPPS (Aib2, αMeF(2F)6, 4Pal10, αMeL13, Orn16, Aib20, D-Glu24, αMeY25, K17 and K31: K((εK)-(γ-Glu)-CO-(CH2)12-CO2H), C-terminal NH2) [Example 38] | 0.0155 nM | > 9950 nM | 0.225 nM |  | 
30 | YXEGTXTSDXSIXLDXKAQXEFIXXLIEGGKSSGAPPPS (Aib2, αMeF6, αMeF10, αMeL13, Orn16, Aib20, D-Glu24, αMeY25, K17 and K31: K(AEEA2-(γ-Glu)-CO-(CH2)12-CO2H), C-terminal NH2) [Example 45] | 0.0517 nM | > 9950 nM | 9.18 nM |  | 
